T1: His-tagged RAD51C (human, UniProt O43502 1-376)
T1 sequence: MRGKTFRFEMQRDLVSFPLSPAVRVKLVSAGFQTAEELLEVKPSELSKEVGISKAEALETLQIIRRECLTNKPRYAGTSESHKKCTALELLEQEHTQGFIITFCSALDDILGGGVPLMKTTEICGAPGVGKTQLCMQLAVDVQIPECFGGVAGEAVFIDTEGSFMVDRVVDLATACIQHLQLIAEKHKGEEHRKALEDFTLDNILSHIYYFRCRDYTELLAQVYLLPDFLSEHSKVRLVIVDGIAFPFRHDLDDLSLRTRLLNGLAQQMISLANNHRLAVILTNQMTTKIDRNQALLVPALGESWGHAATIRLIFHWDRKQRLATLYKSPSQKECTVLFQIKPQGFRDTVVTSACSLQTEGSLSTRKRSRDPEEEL

B1: MBP fused to the WD40 domain of PALB2 (amino acids 859-1186), wild type (domain or fragment)
chain: SELKNPSGSCSVDVSAMFWERAGCKEPCIITACEDVVSLWKALDAWQWEKLYTWHFAEVPVLQIVPVPDVYNLVCVALGNLEIREIRALFCSSDDESEKQVLLKSGNIKAVLGLTKRRLVSSSGTLSDQQVEVMTFAEDGGGKENQFLMPPEETILTFAEVQGMQEALLGTTIMNNIVIWNLKTGQLLKKMHIDDSYQASVCHKAYSEMGLLFIVLSHPCAKESESLRSPVFQLIVINPKTTLSVGVMLYCLPPGQAGRFLEGDVKDHCAAAILTSGTIAIWDLLLGQCTALLPPVSDQHWSFVKWSGTDSHLLAGQKDGNIFVYHYS
B2: MBP-PALB2 WD40 domain T1030I (domain or fragment)
chain: SELKNPSGSCSVDVSAMFWERAGCKEPCIITACEDVVSLWKALDAWQWEKLYTWHFAEVPVLQIVPVPDVYNLVCVALGNLEIREIRALFCSSDDESEKQVLLKSGNIKAVLGLTKRRLVSSSGTLSDQQVEVMTFAEDGGGKENQFLMPPEETILTFAEVQGMQEALLGTIIMNNIVIWNLKTGQLLKKMHIDDSYQASVCHKAYSEMGLLFIVLSHPCAKESESLRSPVFQLIVINPKTTLSVGVMLYCLPPGQAGRFLEGDVKDHCAAAILTSGTIAIWDLLLGQCTALLPPVSDQHWSFVKWSGTDSHLLAGQKDGNIFVYHYS
B3: MBP-PALB2 WD40 domain L939W (domain or fragment)
chain: SELKNPSGSCSVDVSAMFWERAGCKEPCIITACEDVVSLWKALDAWQWEKLYTWHFAEVPVLQIVPVPDVYNLVCVALGNWEIREIRALFCSSDDESEKQVLLKSGNIKAVLGLTKRRLVSSSGTLSDQQVEVMTFAEDGGGKENQFLMPPEETILTFAEVQGMQEALLGTTIMNNIVIWNLKTGQLLKKMHIDDSYQASVCHKAYSEMGLLFIVLSHPCAKESESLRSPVFQLIVINPKTTLSVGVMLYCLPPGQAGRFLEGDVKDHCAAAILTSGTIAIWDLLLGQCTALLPPVSDQHWSFVKWSGTDSHLLAGQKDGNIFVYHYS

target: T1, His-tagged RAD51C; experiment: pull-down

Binding result, binds:
B1
B2
B3
